Reference: paper PMC6349402

Biological target: FGFR1c and βKlotho receptor complex on membrane vesicles of CHO cells overexpressing both (human) (UniProt Q86Z14)
Test: cryo-EM and cryo-ET of a gold-nanoparticle-labelled ligand on membrane vesicles; membrane preparations (~5 mg/ml) incubated with AuE38C-FGF21 (0.03 mg/ml) on ice for 30 min, washed with 1X PBS three times, plunge-frozen; AuNPs and AuNP pairs counted in tomograms

UniProt Q86Z14, sequence (Q86Z14 whole entry, chain 1 of 2): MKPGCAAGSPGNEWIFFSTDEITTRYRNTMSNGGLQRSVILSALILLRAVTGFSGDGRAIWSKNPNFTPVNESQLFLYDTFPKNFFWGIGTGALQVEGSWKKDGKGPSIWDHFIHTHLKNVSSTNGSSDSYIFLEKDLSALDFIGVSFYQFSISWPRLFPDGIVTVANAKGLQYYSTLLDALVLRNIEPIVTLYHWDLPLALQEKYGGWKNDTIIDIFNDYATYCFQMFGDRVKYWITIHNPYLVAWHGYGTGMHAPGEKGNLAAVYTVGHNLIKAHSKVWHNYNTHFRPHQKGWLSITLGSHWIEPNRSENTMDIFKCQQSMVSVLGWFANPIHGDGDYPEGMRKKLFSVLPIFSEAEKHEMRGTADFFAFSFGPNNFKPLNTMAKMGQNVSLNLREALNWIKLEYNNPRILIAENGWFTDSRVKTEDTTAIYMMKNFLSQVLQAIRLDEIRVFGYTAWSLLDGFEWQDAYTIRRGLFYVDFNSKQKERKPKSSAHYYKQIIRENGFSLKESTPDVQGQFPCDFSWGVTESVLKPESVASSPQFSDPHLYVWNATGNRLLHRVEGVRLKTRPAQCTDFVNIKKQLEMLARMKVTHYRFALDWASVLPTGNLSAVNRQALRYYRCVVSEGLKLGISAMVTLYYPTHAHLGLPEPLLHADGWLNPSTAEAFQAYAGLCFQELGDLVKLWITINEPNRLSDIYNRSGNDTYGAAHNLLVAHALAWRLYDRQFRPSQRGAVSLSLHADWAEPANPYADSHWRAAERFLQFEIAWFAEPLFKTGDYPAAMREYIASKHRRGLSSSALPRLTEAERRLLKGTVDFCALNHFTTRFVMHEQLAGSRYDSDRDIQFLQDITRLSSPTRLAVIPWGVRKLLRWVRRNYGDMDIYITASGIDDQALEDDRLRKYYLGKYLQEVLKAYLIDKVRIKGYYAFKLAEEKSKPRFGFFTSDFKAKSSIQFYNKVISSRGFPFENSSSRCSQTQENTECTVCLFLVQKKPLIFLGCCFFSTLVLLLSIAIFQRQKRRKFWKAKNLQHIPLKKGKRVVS
UniProt Q86Z14, sequence (P11362 22-822, chain 2 of 2, further chain): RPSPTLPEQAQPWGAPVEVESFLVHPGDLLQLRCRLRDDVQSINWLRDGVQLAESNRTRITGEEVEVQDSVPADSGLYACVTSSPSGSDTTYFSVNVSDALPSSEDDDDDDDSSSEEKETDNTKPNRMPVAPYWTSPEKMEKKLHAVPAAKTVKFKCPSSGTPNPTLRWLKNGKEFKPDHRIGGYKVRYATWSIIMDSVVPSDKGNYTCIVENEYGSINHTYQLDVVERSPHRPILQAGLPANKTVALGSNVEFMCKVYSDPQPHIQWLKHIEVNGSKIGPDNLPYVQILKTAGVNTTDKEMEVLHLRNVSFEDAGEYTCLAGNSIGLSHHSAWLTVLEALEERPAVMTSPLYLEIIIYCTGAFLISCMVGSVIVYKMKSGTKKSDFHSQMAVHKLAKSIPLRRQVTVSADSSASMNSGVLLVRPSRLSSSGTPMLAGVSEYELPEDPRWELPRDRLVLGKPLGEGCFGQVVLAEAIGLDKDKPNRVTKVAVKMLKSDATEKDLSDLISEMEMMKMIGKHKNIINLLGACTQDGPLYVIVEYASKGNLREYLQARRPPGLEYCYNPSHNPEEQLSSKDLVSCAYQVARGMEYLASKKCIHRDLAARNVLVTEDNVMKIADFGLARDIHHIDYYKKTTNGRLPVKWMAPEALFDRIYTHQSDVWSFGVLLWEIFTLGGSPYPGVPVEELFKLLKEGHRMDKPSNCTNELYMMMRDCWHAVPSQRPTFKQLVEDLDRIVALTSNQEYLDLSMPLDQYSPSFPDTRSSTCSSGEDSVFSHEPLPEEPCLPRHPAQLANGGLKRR

percent of AuNPs in true pairs: 85%
stoichiometry N (copies of FGF21 in the receptor complex): 2
Substance: AuNP-FGF21 (E38C-FGF21 conjugated with a 144-gold atom nanoparticle) (ligand)
